Experimental data from patent US20140072613A1 (published 2014).

T1: Itk(h) (human, UniProt Q08881 352-620, limits assumed)
T1 sequence (looked up): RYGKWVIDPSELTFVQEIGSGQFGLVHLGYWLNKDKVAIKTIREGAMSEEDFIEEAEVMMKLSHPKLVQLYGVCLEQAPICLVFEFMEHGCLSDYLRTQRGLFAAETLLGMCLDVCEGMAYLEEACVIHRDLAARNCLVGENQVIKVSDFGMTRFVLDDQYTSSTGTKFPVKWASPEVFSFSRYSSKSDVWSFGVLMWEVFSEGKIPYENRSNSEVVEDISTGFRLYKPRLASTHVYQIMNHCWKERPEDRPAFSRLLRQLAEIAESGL

T2: Bmx(h) (human, UniProt P51813 1-675, limits assumed)
T2 sequence (looked up): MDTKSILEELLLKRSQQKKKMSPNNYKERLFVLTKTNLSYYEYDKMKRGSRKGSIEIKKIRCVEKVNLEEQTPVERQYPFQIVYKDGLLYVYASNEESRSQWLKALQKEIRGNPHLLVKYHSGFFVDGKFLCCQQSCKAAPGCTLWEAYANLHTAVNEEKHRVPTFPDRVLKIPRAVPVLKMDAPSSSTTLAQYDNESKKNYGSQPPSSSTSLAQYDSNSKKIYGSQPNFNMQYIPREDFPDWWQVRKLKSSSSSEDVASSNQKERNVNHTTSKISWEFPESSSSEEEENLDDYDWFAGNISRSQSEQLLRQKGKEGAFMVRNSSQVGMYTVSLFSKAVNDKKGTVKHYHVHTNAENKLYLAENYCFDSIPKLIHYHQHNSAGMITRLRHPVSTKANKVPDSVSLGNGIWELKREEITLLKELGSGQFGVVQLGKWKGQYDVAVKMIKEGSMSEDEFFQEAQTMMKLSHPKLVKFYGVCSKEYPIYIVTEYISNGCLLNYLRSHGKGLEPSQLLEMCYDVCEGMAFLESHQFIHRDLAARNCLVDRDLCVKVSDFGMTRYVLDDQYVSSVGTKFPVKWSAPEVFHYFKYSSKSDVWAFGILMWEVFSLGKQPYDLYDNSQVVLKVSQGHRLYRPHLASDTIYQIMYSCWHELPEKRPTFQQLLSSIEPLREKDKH


Legend:
Experiment in all cases: cell-based or functional assay
[1] = biological target: Abl(Y253F)(h) (human, UniProt P00519 27-1130, limits assumed)
[2] = biological target: HIPK3(h) (human, UniProt Q9H422 163-562, limits assumed)
[3] = biological target: T1, Itk(h)
[4] = biological target: JAK2(h) (human, UniProt O60674 808-1132, limits assumed)
[5] = biological target: Lck(h) (human, UniProt P06239 1-509)
[6] = biological target: MEK1(h) (human, UniProt Q02750 1-393)
[7] = biological target: AMPKα1(h) (human, UniProt Q13131 1-559)
[8] = biological target: MSK2(h) (human, UniProt O75676 1-772, limits assumed)
[9] = biological target: PAK5(h) (human, UniProt Q9P286 1-719, limits assumed)
[10] = biological target: PDGFRα(h) (human, UniProt P16234 550-1089, limits assumed)
[11] = biological target: Pyk2 (h) (human, UniProt Q14289 1-1009, limits assumed)
[12] = biological target: ROCK-II(h) (human, UniProt O75116 11-552, limits assumed)
[13] = biological target: CDK5/p25(h) (human, UniProt Q00535 1-292; Q15078 99-307)
[14] = biological target: CK1γ1(h) (human, UniProt Q9HCP0 1-422)
[15] = biological target: cSRC(h) (human, UniProt P12931 1-536)
[16] = biological target: Abl(M351T)(h) (human, UniProt P00519 27-1130, limits assumed)
[17] = biological target: GRK5(h) (human, UniProt P34947 1-590)
[18] = biological target: JAK3(h) (human, UniProt P52333 781-1124, limits assumed)
[19] = biological target: PKA(h) (human, UniProt P17612 1-351)
[20] = biological target: PKGη(h) (human)
[21] = biological target: Plk1(h) (human, UniProt P53350 1-603)
[22] = biological target: T2, Bmx(h)
[23] = biological target: SRPK2(h) (human, UniProt P78362 1-688, limits assumed)
[24] = biological target: Tie2(R849W)(h) (human, UniProt Q02763 771-1124, limits assumed)
[25] = biological target: TLK2(h) (human, UniProt Q86UE8 1-772, limits assumed)
[26] = biological target: CK2α2(h) (human, UniProt P19784 1-350)
[27] = biological target: cKit(V560G)(h) (human, UniProt P10721 544-976)
[28] = biological target: c-RAF(h) (human, UniProt P04049 306-648, limits assumed)
[29] = biological target: EGFR(L858R)(h) (human, UniProt P00533 696-1210, limits assumed)
[30] = biological target: FAK(h) (human, UniProt Q05397 1-1052, limits assumed)

Row | Binder | % activity, 100 µM [1] | % activity, 100 µM [3] | % activity, 100 µM [6] | % activity, 100 µM [7] | % activity, 100 µM [8] | % activity, 100 µM [10] | % activity, 100 µM [11] | % activity, 100 µM [12] | % activity, 100 µM [13] | % activity, 100 µM [15] | other results
1 | FAKLAARLYRKALARQLGVAA [MMI-0300] | 86% | 77% | 77% | 71% | 56% | 65% | 47% | 74% | 89% | 26% | % activity, 100 µM [2]: 93%; % activity, 100 µM [4]: 133%; % activity, 100 µM [5]: -2%; % activity, 100 µM [9]: 110%; % activity, 100 µM [14]: 111%; % activity, 100 µM [16]: 90%
2 | KAFAKLAARLYRKALARQLGVAA [MMI-0400] | 78% | 63% | 77% | 87% | 52% | 40% | 34% | 77% | 192% | 14% | % activity, 100 µM [17]: 131%; % activity, 100 µM [18]: 122%; % activity, 100 µM [19]: 119%; % activity, 100 µM [20]: 98%; % activity, 100 µM [21]: 119%; % activity, 100 µM [22]: 26%; % activity, 100 µM [23]: 97%; % activity, 100 µM [24]: 108%; % activity, 100 µM [25]: 151%; % activity, 100 µM [26]: 96%; % activity, 100 µM [27]: 124%; % activity, 100 µM [28]: 102%; % activity, 100 µM [29]: 52%; % activity, 100 µM [30]: 96%
